Test results from patent publication US20260234227A1 (CEPHALON, published 2026).
One block for each binder: values may come before it.

What was measured:
[1] = target: T1, vasoactive intestinal peptide (VIP) (human); assay: SPR; target VIP
T1 peptide: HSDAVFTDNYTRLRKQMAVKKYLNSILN
Procedure: (§1) In brief, antibody and peptide interaction was determined on a Biacore S200 (GE Healthcare) by method previously described (Andreu and Gomes 2002). An anti-Human IgG Fc capture antibody was immobilized on a CM5 biosensor chip via standard amine coupling. Anti-PACAP antibodies were injected and captured to 200 to 400 response units (RU),). PACAP38, PACAP27 and VIP were diluted in HBS-EP+buffer containing 0.1% w/v BSA (Bovostar, catalog number BSAS1.0) and 0.15 M NaCl (Sigma-Aldrich catalog number S7653), pH 7.4. Binding kinetics of antibodies were determined by injection of two-fold serial dilutions of PACAPs (12 nm to 0 nM) and VIP (1200 nM to 0 nM) in running buffer at 37° C. with a flow rate of 40 uL/min for 2 min followed by a dissociation for 10 minutes. For subsequent cycles, the chip was regenerated using 0.85% phosphoric acid. Data was analysed with the Biacore S200 Evaluation Software (ver 1.0). Association rate (kₐ) and dissociation rate (kd) constants were determined using a simple one-to-one Langmuir binding model and used to calculate the equilibrium dissociation constant (KD).
(§2) The selectivity of antibody 890C was assessed by comparing the inhibition of PACAP38-signalling to inhibition of VIP-signalling in a cyclic AMP (cAMP) measuring cell-based functional assay.

[2] = target: T2, pituitary adenylate cyclase-activating peptide, 27-amino acid peptide (PACAP27) (human, not fully specified); assay: SPR; target PACAP27
T2 peptide: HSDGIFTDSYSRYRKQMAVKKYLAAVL
Procedure: as §1, §2

[3] = target: T3, pituitary adenylate cyclase-activating peptide, 38-amino acid peptide (PACAP38) (human, not fully specified); assay: SPR; target PACAP38
T3 construct: The background calls the active forms alpha-amidated
T3 peptide: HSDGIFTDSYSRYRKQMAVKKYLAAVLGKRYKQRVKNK
Procedure: as §1, §2

[4] = target: T3, pituitary adenylate cyclase-activating …; assay: cell-based or functional assay
[5] = target: T3, pituitary adenylate cyclase-activating …; assay: cell-based or functional assay
[6] = target: T3, pituitary adenylate cyclase-activating …; assay: cell-based or functional assay
[7] = target: T3, pituitary adenylate cyclase-activating …; assay: cell-based or functional assay
[8] = target: T1, vasoactive intestinal peptide (VIP); assay: cell-based or functional assay
[9] = target: T3, pituitary adenylate cyclase-activating …; assay: SPR (Biacore), 37 C, antibody captured by anti-human IgG Fc, PACAP-38 as analyte
Procedure: as §1

[10] = target: T3, pituitary adenylate cyclase-activating …; assay: SPR (Biacore) off-rate ranking, antibody captured from supernatant, single injection of 33.3 nM PACAP38
Procedure: as §1, with “Binding kinetics of antibodies were determined by injection of two-fold serial dilutions of PACAPs (12 nm to 0 nM) and VIP (1200 nM to 0 nM) in running buffer at 37° C. with a flow rate of 40 uL/min for 2 min followed by a dissociation for 10 minutes.” left out

[11] = target: T4, Peptide Histidine Methionine (PHM); assay: SPR (Biacore), captured antibody, 37.5 nM peptide injected at 37 C, relative response after 15 sec dissociation
T4 peptide: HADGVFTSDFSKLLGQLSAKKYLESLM
Procedure: (§3) The anti-PACAP antibodies, e.g., 890C, were tested against related peptides in the Secretin Glucagon family (Table 10) to determine the presence and extent of any off-target binding. Nine bioactive peptides in the glucagon superfamily are: PACAP, VIP, glucagon, Glucagon-Like Peptides (GLP-1, GLP-2), Growth Hormone Releasing Factor (GRF or GHRF), Peptide Histidine Methionine (PHM), secretin, and Gastric inhibitory polypeptide (GIP). Following capture of antibodies as described in example 4, the antibody and the peptide interaction was measured by injection of 37.5 nM of each peptide diluted in buffer at 37° C. with a flow rate of […] for 2 min followed by a dissociation phase of 4-5 min. Samples were injected in a multi-cycle manner over freshly captured anti-PACAP antibody, by regenerating the capture surfaces with two injections of 0.85% phosphoric acid at a flow rate of 30 μL/min.
as §2

Secretin = target: T5, Secretin; assay: as above
T5 construct: the listing entry is to be used
T5 peptide: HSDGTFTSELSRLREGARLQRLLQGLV
Procedure: as §3, §2

Glucagon = assay: as above
Procedure: as §3, §2

[12] = target: T6, Gastric inhibitory polypeptide (GIP); assay: as above
T6 peptide: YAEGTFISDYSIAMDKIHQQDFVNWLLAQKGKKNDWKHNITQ
Procedure: as §3, §2

[13] = target: T7, Glucagon-Like Peptide 1 (GLP-1); assay: as above
T7 peptide: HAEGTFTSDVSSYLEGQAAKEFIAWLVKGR
Procedure: as §3, §2

[14] = target: T8, Glucagon-Like Peptide 2 (GLP-2); assay: as above
T8 peptide: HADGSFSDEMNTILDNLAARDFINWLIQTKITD
Procedure: as §3, §2

[15] = target: T9, Growth Hormone Releasing Factor (GRF or GHRF); assay: as above
T9 construct: the listing entry is to be used
T9 peptide: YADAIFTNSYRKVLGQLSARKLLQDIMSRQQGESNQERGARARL
Procedure: as §3, §2

[16] = target: T1, vasoactive intestinal peptide (VIP); assay: SPR (Biacore S200), 37 C, captured antibody, steady state binding
[17] = target: T3, pituitary adenylate cyclase-activating …; assay: SPR (Biacore S200), 37 C, captured antibody, two-fold dilutions of peptide, 1:1 Langmuir model
[18] = target: T2, pituitary adenylate cyclase-activating …; assay: as above

Glucagon, sequence (peptide, as listed by the source): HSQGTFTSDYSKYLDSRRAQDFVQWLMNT

Kd [1]: 390 nM | Kd [2]: 0.218 nM | Kd [3]: 0.054 nM | selectivity, inhibition of PACAP38-induced cAMP production (PAC1 cells) versus VIP-induced cAMP production (VPAC1 cells) [4]: > 1000 fold | IC50 (nM), inhibition of PACAP-induced cAMP accumulation [5]: 0.32 nM | IC50 (nM), PACAP-induced cAMP accumulation in CHO-K1 receptor cell lines (cAMP-Glo) [6]: 0.32 nM | IC50 (read off the curve), PACAP38-induced cAMP production in CHO-K1 cells expressing PAC1 [7]: ~0.4 nM | IC50 (read off the curve), VIP-induced cAMP production in CHO-K1 cells expressing VPAC1 [8]: ~600 nM | fold shift of the VIP/VPAC1 inhibition curve relative to the PACAP/PAC1 inhibition curve (selectivity) [8]: 1400 fold | Kd [9]: 0.0284 nM | koff [9]: 0.000671 s⁻¹ | kon [9]: 2.36e+07 M⁻¹ s⁻¹ | Kd [10]: 0.0284 nM | koff [10]: 0.000671 s⁻¹ | kon [10]: 2.36e+07 M⁻¹ s⁻¹ | binding result [11]: no binding (tested: 37.5 nM) | binding result (Secretin): no binding (tested: 37.5 nM) | binding result (Glucagon): no binding (tested: 37.5 nM) | binding result [12]: no binding (tested: 37.5 nM) | binding result [13]: no binding (tested: 37.5 nM) | binding result [14]: no binding (tested: 37.5 nM) | binding result [15]: no binding (tested: 37.5 nM)
B1: anti-PACAP antibody 890C (antibody, human IgG4 S228P, kappa, V domains shown)
VH: EVQLVQSGAEVKKPGSSVKVSCKASGGTFSDVYMHWVRQAPGQGLEWMGLIYPIFADTRYAQKFQGRVTITADESTSTAYMELSSLRSEDTAVYYCAIDQDGSFAYWGQGTLVTVSS
VL: DIVMTQSPDSLAVSLGERATINCKSSQSLLDADGKTYLNWLQQKPGQPPKRLIYWASTRESGVPDRFSGSGSGTDFTLTISSLQAEDVAVYYCWQGTWFDLTFGGGTKVEIKR
notes: LC S(27E)A, G29, L50W, V51A, K53T, L54R, D55E, H93W, P95D

IC50 (nM), inhibition of PACAP-induced cAMP accumulation [5]: 0.15 nM | Kd [16]: 225 nM | Kd [9]: 0.017 nM | koff [9]: 0.000566 s⁻¹ | kon [9]: 3.33e+07 M⁻¹ s⁻¹ | Kd [17]: 0.0328 nM | koff [17]: 0.000565 s⁻¹ | kon [17]: 1.72e+07 M⁻¹ s⁻¹ | Kd [18]: 0.154 nM | koff [18]: 0.00101 s⁻¹ | kon [18]: 6.58e+06 M⁻¹ s⁻¹ | Kd [10]: 0.017 nM | koff [10]: 0.000566 s⁻¹ | kon [10]: 3.33e+07 M⁻¹ s⁻¹
B2: anti-PACAP antibody 605C (antibody, V domains shown)
VH: EVQLVQSGAEVKKPGSSVKVSCKASGGTFSDSYMHWVRQAPGQGLEWMGLIYPIFADTRYAQKFQGRVTITADESTSTAYMELSSLRSEDTAVYYCAIDQDGSFAYWGQGTLVTVSS
VL: DIVMTQSPDSLAVSLGERATINCKSSQSLLDADGKTYLNWLQQKPGQPPKRLIYWASTRESGVPDRFSGSGSGTDFTLTISSLQAEDVAVYYCWQGTWFDLTFGGGTKVEIK
